Here are results for 39 variants from the RNAGym collection of RNA variant scans (doi:10.7554/elife.90254).

First the molecules themselves.
B1: LINE1-full (parent)
chain: UACGUAGGUGGUUUUCCCCUGAUAGUGCUAAGGGGGCCUGGAAGUUUGGACUGGGCAGAGCUCAACACAGCGUGGCAAAGUGGCUGUGGCUAGACUGCCUCUCUGGAUUCCUCGUCACUCAGCAGGGCAUCUCUGAGAGAAAUGCC

Variants of B1 are the subject of the data set. The data set can be described thus: self-cleavage, relative activity (ratio to wild type); higher = more cleavage; in vitro, sequencing; the parent is a self-cleaving ribozyme.
Take UACGUAGGUGGUUUUCCCCUGAUAGUGCUAAGGGGGCCUGGAAGUUUGGACUGGGCAGAGCUCAACACAGCGUGGCAAAGUGGCUGUGGCUAGGCUGCCUCUCUGGAUUCCUCGUCACUCAGCAGGGCAUCUCAGAGAGAAAUGCC: the self-cleavage amounted to 0.21.

Take UACGUAGGUGGUUUUCCCCUGAUAGUGCUAAGGGGGCCUGGAAGUUUGGACUGGGCAGAGCUCAACACAGCGUGGCAAAGUGGCUGUGGCUAGGCUGCCUCUCUGGAUUCCUCGUCACUCAGCAGGGCAUCUCCGAGAGAAAUGCC: the self-cleavage is 0.44.

Consider UACGUAGGUGGUUUUCCCCUGAUAGUGCUAAGGGGGCCUGGAAGUUUGGACUGGGCAGAGCUCAACACAGCGUGGCAAAGUGGCUGUGGCUAGUCUGCCUCUCUGGAUUCCUCGUCACUCAGCAGGGCAUCUCUGAGAGAGAUGCC, for which the self-cleavage was determined as 0.37.

With UACGUAGGUGGUUUUCCCCUGAUAGUGCUAAGGGGGCCUGGAAGUUUGGACUGGGCAGAGCUCAACACAGCGUGGCAAAGUGGCUGUGGCUAGUCUGCCUCUCUGGAUUCCUCGUCACUCAGCAGGGCAUCUCUGAGAGAUAUGCC, the self-cleavage worked out at 0.42.

For the variant UACGUAGGUGGUUUUCCCCUGAUAGUGCUAAGGGGGCCUGGAAGUUUGGACUGGGCAGAGCUCAACACAGCGUGGCAAAGUGGCUGUGGCUAGGCUGCCUCUCUGGAUUCCUCGUCACUCAGCACGGCAUCUCUGAGAGAAAUGCC, the self-cleavage amounted to 0.57.

Regarding UACGUAGGUGGUUUUCCCCUGAUAGUGCUAAGGGGGCCUGGAAGUUUGGACUGGGCAGAGCUCAACACAGCGUGGCAAAGUGGCUGUGGCUAGGCUGCCUCUCUGGAUUCCUCGUCACUCAGCAGGGCAUCUCUGAGAGAAAUGCU, the self-cleavage is 0.47.

For the variant UACGUAGGUGGUUUUCCCCUGAUAGUGCUAAGGGGGCCUGGAAGUUUGGACUGGGCAGAGCUCAACACAGCGUGGCAAAGUGGCUGUGGCUAGUCUGCCUCUCUGGUUUCCUCGUCACUCAGCAGGGCAUCUCUGAGAGAAAUGCC, the self-cleavage stood at 0.32.

For the variant UACGUAGGUGGUUUUCCCCUGAUAGUGCUAAGGGGGCCUGGAAGUUUGGACUGGGCAGAGCUCAACACAGCGUGGCAAAGUGGCUGUGGCUAGGCUGCCUCUCUGGAUUCCUCAUCACUCAGCAGGGCAUCUCUGAGAGAAAUGCC, the self-cleavage was found to be 0.23.

On to UACGUAGGUGGUUUUCCCCUGAUAGUGCUAAGGGGGCCUGGAAGUUUGGACUGGGCAGAGCUCAACACAGCGUGGCAAAGUGGCUGUGGCUAGGCUGCCUCUCAGGAUUCCUCGUCACUCAGCAGGGCAUCUCUGAGAGAAAUGCC, for which the self-cleavage amounted to 0.22.

Turning to UACGUAGGUGGUUUUCCCCUGAUAGUGCUAAGGGGGCCUGGAAGUUUGGACUGGGCAGAGCUCAACACAGCGUGGCAAAGUGGCUGUGGCUAGUCUGCCUCACUGGAUUCCUCGUCACUCAGCAGGGCAUCUCUGAGAGAAAUGCC, the self-cleavage turned out to be 0.33.

For the variant UACGUAGGUGGUUUUCCCCUGAUAGUGCUAAGGGGGCCUGGAAGUUUGGACUGGGCAGAGCUCAACACAGCGUGGCAAAGUGGCUGUGGCUAGUCUGCCUCUCUGGAUCCCUCGUCACUCAGCAGGGCAUCUCUGAGAGAAAUGCC, the self-cleavage came out at 0.22.

As for UACGUAGGUGGUUUUCCCCUGAUAGUGCUAAGGGGGCCUGGAAGUUUGGACUGGGCAGAGCUCAACACAGCGUGGCAAAGUGGCUGUGGCUAGGCUGCCUCUCUGGAUUCCUCGUCACUCAGCAGGGCAUCCCUGAGAGAAAUGCC, the self-cleavage was 0.34.

As to UACGUAGGUGGUUUUCCCCUGAUAGUGCUAAGGGGGCCUGGAAGUUUGGACUGGGCAGAGCUCAACACAGCGUGGCAAAGUGGCUGUGGCUAGUCUGCCUCUCUGGAUUCCUCGUCACUCAGCAGGGCAUCUCUGAGGGAAAUGCC, the self-cleavage stood at 0.32.

In the case of UACGUAGGUGGUUUUCCCCUGAUAGUGCUAAGGGGGCCUGGAAGUUUGGACUGGGCAGAGCUCAACACAGCGUGGCAAAGUGGCUGUGGCUAGUCUGCCUCUCUGGAUUCCUCGUCACUCAGCAGGGCAUUUCUGAGAGAAAUGCC, the self-cleavage is 0.29.

Regarding UACGUAGGUGGUUUUCCCCUGAUAGUGCUAAGGGGGCCUGGAAGUUUGGACUGGGCAGAGCUCAACACAGCGUGGCAAAGUGGCUGUGGCUAGUCUGCCUCUCUGGAUUCCUCGUCACUGAGCAGGGCAUCUCUGAGAGAAAUGCC, the self-cleavage worked out at 0.3.

As for UACGUAGGUGGUUUUCCCCUGAUAGUGCUAAGGGGGCCUGGAAGUUUGGACUGGGCAGAGCUCAACACAGCGUGGCAAAGUGGCUGUGGCUAGUCUGCCUCUCAGGAUUCCUCGUCACUCAGCAGGGCAUCUCUGAGAGAAAUGCC, the self-cleavage amounted to 0.19.

As to UACGUAGGUGGUUUUCCCCUGAUAGUGCUAAGGGGGCCUGGAAGUUUGGACUGGGCAGAGCUCAACACAGCGUGGCAAAGUGGCUGUGGCUAGUCUGCCUCUCCGGAUUCCUCGUCACUCAGCAGGGCAUCUCUGAGAGAAAUGCC, the self-cleavage was found to be 0.55.

For UACGUAGGUGGUUUUCCCCUGAUAGUGCUAAGGGGGCCUGGAAGUUUGGACUGGGCAGAGCUCAACACAGCGUGGCAAAGUGGCUGUGGCUAGGCUGCCUCUCUGGAUUCCCCGUCACUCAGCAGGGCAUCUCUGAGAGAAAUGCC, the self-cleavage stood at 0.13.

Turning to UACGUAGGUGGUUUUCCCCUGAUAGUGCUAAGGGGGCCUGGAAGUUUGGACUGGGCAGAGCUCAACACAGCGUGGCAAAGUGGCUGUGGCUAGGCUGCCUCUCUGGAUUCCUCGCCACUCAGCAGGGCAUCUCUGAGAGAAAUGCC, the self-cleavage stood at 0.45.

Turning to UACGUAGGUGGUUUUCCCCUGAUAGUGCUAAGGGGGCCUGGAAGUUUGGACUGGGCAGAGCUCAACACAGCGUGGCAAAGUGGCUGUGGCUAGGCUGCCUCUCUGGAUUCCUCGACACUCAGCAGGGCAUCUCUGAGAGAAAUGCC, the self-cleavage was 0.34.

Turning to UACGUAGGUGGUUUUCCCCUGAUAGUGCUAAGGGGGCCUGGAAGUUUGGACUGGGCAGAGCUCAACACAGCGUGGCAAAGUGGCUGUGGCUAGUCUGCCUCUCUGGAUUCCUCGUUACUCAGCAGGGCAUCUCUGAGAGAAAUGCC, the self-cleavage was determined as 0.33.

UACGUAGGUGGUUUUCCCCUGAUAGUGCUAAGGGGGCCUGGAAGUUUGGACUGGGCAGAGCUCAACACAGCGUGGCAAAGUGGCUGUGGCUAGGCUGCCUCACUGGAUUCCUCGUCACUCAGCAGGGCAUCUCUGAGAGAAAUGCC: the self-cleavage is 0.27.

Turning to UACGUAGGUGGUUUUCCCCUGAUAGUGCUAAGGGGGCCUGGAAGUUUGGACUGGGCAGAGCUCAACACAGCGUGGCAAAGUGGCUGUGGCUAGUCUGCCUUUCUGGAUUCCUCGUCACUCAGCAGGGCAUCUCUGAGAGAAAUGCC, the self-cleavage was determined as 0.31.

Consider UACGUAGGUGGUUUUCCCCUGAUAGUGCUAAGGGGGCCUGGAAGUUUGGACUGGGCAGAGCUCAACACAGCGUGGCAAAGUGGCUGUGGCUAGGCUGCCUCUCUGGAUUCCUCGUCACUCAGCAGGUCAUCUCUGAGAGAAAUGCC, for which the self-cleavage came to 0.09.

Consider UACGUAGGUGGUUUUCCCCUGAUAGUGCUAAGGGGGCCUGGAAGUUUGGACUGGGCAGAGCUCAACACAGCGUGGCAAAGUGGCUGUGGCUAGUCUGCCUCUCUGGAUUCCUCGUCACUCAGCAGGGCAUCUCUGAGAGUAAUGCC, for which the self-cleavage was 0.26.

UACGUAGGUGGUUUUCCCCUGAUAGUGCUAAGGGGGCCUGGAAGUUUGGACUGGGCAGAGCUCAACACAGCGUGGCAAAGUGGCUGUGGCUAGUCUGCCCCUCUGGAUUCCUCGUCACUCAGCAGGGCAUCUCUGAGAGAAAUGCC: the self-cleavage turned out to be 0.33.

Regarding UACGUAGGUGGUUUUCCCCUGAUAGUGCUAAGGGGGCCUGGAAGUUUGGACUGGGCAGAGCUCAACACAGCGUGGCAAAGUGGCUGUGGCUAGGCUGCCUCUCUGGAUCCCUCGUCACUCAGCAGGGCAUCUCUGAGAGAAAUGCC, the self-cleavage is 0.07.

UACGUAGGUGGUUUUCCCCUGAUAGUGCUAAGGGGGCCUGGAAGUUUGGACUGGGCAGAGCUCAACACAGCGUGGCAAAGUGGCUGUGGCUAGGCUGCCUCUCUGGAUACCUCGUCACUCAGCAGGGCAUCUCUGAGAGAAAUGCC: the self-cleavage was determined as 0.39.

Turning to UACGUAGGUGGUUUUCCCCUGAUAGUGCUAAGGGGGCCUGGAAGUUUGGACUGGGCAGAGCUCAACACAGCGUGGCAAAGUGGCUGUGGCUAGGCUGCCUCUCUGGAUUCCUCGUCACUCAGCAGGGCAACUCUGAGAGAAAUGCC, the self-cleavage was 0.34.

On to UACGUAGGUGGUUUUCCCCUGAUAGUGCUAAGGGGGCCUGGAAGUUUGGACUGGGCAGAGCUCAACACAGCGUGGCAAAGUGGCUGUGGCUAGGCUGCCUCUCUGGAUUCCUCGUCACUCAGCAGGGCACCUCUGAGAGAAAUGCC, for which the self-cleavage worked out at 0.36.

Regarding UACGUAGGUGGUUUUCCCCUGAUAGUGCUAAGGGGGCCUGGAAGUUUGGACUGGGCAGAGCUCAACACAGCGUGGCAAAGUGGCUGUGGCUAGGCUGCCCCUCUGGAUUCCUCGUCACUCAGCAGGGCAUCUCUGAGAGAAAUGCC, the self-cleavage came out at 0.44.

On to UACGUAGGUGGUUUUCCCCUGAUAGUGCUAAGGGGGCCUGGAAGUUUGGACUGGGCAGAGCUCAACACAGCGUGGCAAAGUGGCUGUGGCUAGGCUGCCACUCUGGAUUCCUCGUCACUCAGCAGGGCAUCUCUGAGAGAAAUGCC, for which the self-cleavage was 0.21.

With UACGUAGGUGGUUUUCCCCUGAUAGUGCUAAGGGGGCCUGGAAGUUUGGACUGGGCAGAGCUCAACACAGCGUGGCAAAGUGGCUGUGGCUAGUCUGCCUCUCUGGAUUCCUCGUCACUCAGCAGGGCAUCUCUGAGAGAAAUACC, the self-cleavage came to 0.4.

Consider UACGUAGGUGGUUUUCCCCUGAUAGUGCUAAGGGGGCCUGGAAGUUUGGACUGGGCAGAGCUCAACACAGCGUGGCAAAGUGGCUGUGGCUAGUCUGCCUCUCUGGAUUCCUCGUCACUCAGCAGGGCAUCUCUGAGAGAAAUGCC, for which the self-cleavage is 0.29.

In the case of UACGUAGGUGGUUUUCCCCUGAUAGUGCUAAGGGGGCCUGGAAGUUUGGACUGGGCAGAGCUCAACACAGCGUGGCAAAGUGGCUGUGGCUAGUCUGCCUCUCUGGAUUCCUCGUCACUCAGCAGGGCAUCUCUGUGAGAAAUGCC, the self-cleavage came to 0.29.

Take UACGUAGGUGGUUUUCCCCUGAUAGUGCUAAGGGGGCCUGGAAGUUUGGACUGGGCAGAGCUCAACACAGCGUGGCAAAGUGGCUGUGGCUAGUCUGCCUCUCUGGAUUCCACGUCACUCAGCAGGGCAUCUCUGAGAGAAAUGCC: the self-cleavage amounted to 0.31.

As for UACGUAGGUGGUUUUCCCCUGAUAGUGCUAAGGGGGCCUGGAAGUUUGGACUGGGCAGAGCUCAACACAGCGUGGCAAAGUGGCUGUGGCUAGUCUGCCUCUCUGGAUUCCCCGUCACUCAGCAGGGCAUCUCUGAGAGAAAUGCC, the self-cleavage is 0.37.

Take UACGUAGGUGGUUUUCCCCUGAUAGUGCUAAGGGGGCCUGGAAGUUUGGACUGGGCAGAGCUCAACACAGCGUGGCAAAGUGGCUGUGGCUAGGCUGCCUCUCUGGAUUCCUCGUCACUCAGCAGGGCAUCUCUGAGAGAAAUGUC: the self-cleavage was determined as 0.17.

Regarding UACGUAGGUGGUUUUCCCCUGAUAGUGCUAAGGGGGCCUGGAAGUUUGGACUGGGCAGAGCUCAACACAGCGUGGCAAAGUGGCUGUGGCUAGGCUGCCUCUCUGGAUUCCUCGUCACUCAGCAGGGCAUCUCUGAGAGAAACGCC, the self-cleavage is 0.43.
